Measurements taken from article PMC5550728, “Retinoschisin Facilitates the Function of L-Type Voltage-Gated Calcium Channels” (Frontiers in Cellular Neuroscience, 2017).

Target: T1, human full-length RS1 fused to the GAL4 DNA binding domain (pBind-RS1) (human, UniProt O15537 1-224)
T1 construct: 224 amino acids), so with its own signal peptide in the construct; source: Cos1 cells, transfected (mammalian two-hybrid fusion)
T1 sequence (looked up): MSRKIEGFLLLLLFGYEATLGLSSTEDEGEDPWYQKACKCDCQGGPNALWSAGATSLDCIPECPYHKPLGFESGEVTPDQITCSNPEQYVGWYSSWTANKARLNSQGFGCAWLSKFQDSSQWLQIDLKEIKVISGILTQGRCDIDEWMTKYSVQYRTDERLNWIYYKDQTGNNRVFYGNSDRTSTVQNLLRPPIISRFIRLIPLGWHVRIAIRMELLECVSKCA
Assay: two-hybrid; mammalian two-hybrid (luciferase reporter) in Cos1 cells: pBind-RS1 (GAL4 DNA binding domain, bait), pACT-Cav1.4-N terminal (VP16 activation domain), pG5Luc, 100 ng each; controls with empty pBind or pACT; n = 6
Details: partners not purified

B1: human Cav1.4 N-terminal fragment fused to the VP16 activation domain (pACT-Cav1.4-N terminal) (domain or fragment)
chain: not shown
notes: the methods give 1-1481 bp from ATG, which is about 493 codons; the exact C-terminal limit follows from the reverse primer; also called hCav1.4-N; source: Cos1 cells, transfected (mammalian two-hybrid fusion)
  relative luciferase activity, fold over the controls: ≥ 4 fold
